Assay results published in publication PMC6376029, “Diversity within the adenovirus fiber knob hypervariable loops influences primary receptor interactions” (Nature Communications, 2019).

Assays:
[1] = target: HAdV-D26 fiber-knob protein (human adenovirus D serotype 26); test: crystal structure; sitting-drop vapour diffusion, 18 C, protein about 7.5 mg/ml in 10 mM Tris pH 8.0, 30 mM NaCl; data at 100 K, Diamond I04
[2] = target: Recombinant Human CD46 Protein (His Tag) (human) (UniProt P15529); test: SPR; BIAcore 3000, CM5 chip, about 5000 RU of receptor amine-coupled; equilibrium binding analysis of HAdV-D26K (367 uM) and HAdV-B3K (3 uM as printed), 5x 1:3 serial dilutions; 1:1 Langmuir fit; 25 C, PBS, 30 ul/min
[3] = target: Recombinant Human Desmoglein-2 Fc Chimera Protein (human) (UniProt Q14126); test: as above
[4] = target: HAdV-D48 fiber-knob protein (human adenovirus D serotype 48); test: crystal structure; sitting-drop vapour diffusion, 18 C, protein about 7.5 mg/ml in 10 mM Tris pH 8.0, 30 mM NaCl; data at 100 K, Diamond I04
[5] = target: Recombinant Human CXADR Fc Chimera Protein (CAR) (human) (UniProt P78310); test: SPR; BIAcore 3000, CM5 chip, about 5000 RU of receptor (CD46, CAR or DSG2) amine-coupled; fiber-knob injected; single cycle kinetics, top concentration around 200 uM with four 1:3 dilutions; 25 C, PBS, 30 ul/min
[6] = target: T1, Recombinant Human CXADR Fc Chimera Protein (CAR) (human, UniProt P78310); test: SPR
T1 chain: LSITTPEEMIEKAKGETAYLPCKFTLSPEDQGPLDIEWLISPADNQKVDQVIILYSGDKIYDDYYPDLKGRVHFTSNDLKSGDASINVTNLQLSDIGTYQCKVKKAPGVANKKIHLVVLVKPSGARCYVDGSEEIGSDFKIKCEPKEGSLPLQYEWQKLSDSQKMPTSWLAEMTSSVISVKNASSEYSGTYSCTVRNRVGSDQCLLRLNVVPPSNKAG

[7] = target: T1, Recombinant Human CXADR Fc Chimera …; test: SPR
[8] = target: T2, Recombinant Human CD46 Protein (His Tag) (human, UniProt P15529 35-343); test: SPR
T2 chain: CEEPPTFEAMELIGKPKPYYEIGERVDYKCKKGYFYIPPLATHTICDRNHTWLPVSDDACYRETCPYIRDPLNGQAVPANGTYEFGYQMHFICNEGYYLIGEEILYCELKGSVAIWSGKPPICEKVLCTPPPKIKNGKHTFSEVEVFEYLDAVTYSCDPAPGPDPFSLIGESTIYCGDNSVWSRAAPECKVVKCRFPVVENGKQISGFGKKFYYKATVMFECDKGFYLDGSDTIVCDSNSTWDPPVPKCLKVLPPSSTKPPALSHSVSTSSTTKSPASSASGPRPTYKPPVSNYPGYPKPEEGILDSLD

[9] = target: T2, Recombinant Human CD46 Protein (His Tag); test: SPR
[10] = target: T3, Recombinant Human CXADR Fc Chimera Protein (CAR) (human, UniProt P78310); test: SPR; BIAcore 3000, CM5 chip, about 5000 RU of receptor (CD46, CAR or DSG2) amine-coupled; fiber-knob injected; single cycle kinetics, top concentration around 200 uM with four 1:3 dilutions; 25 C, PBS, 30 ul/min; conditions: both partners purified
T3 construct: human Coxsackie and Adenovirus Receptor (CXADR) part of a commercial Fc chimera; Probably the extracellular domain fused to human IgG1 Fc (recalled); source: bought: R&D Systems
T3 sequence: T1 chain

Sequence of Recombinant Human Desmoglein-2 Fc Chimera Protein (human) (Q14126 50-609, change not shown): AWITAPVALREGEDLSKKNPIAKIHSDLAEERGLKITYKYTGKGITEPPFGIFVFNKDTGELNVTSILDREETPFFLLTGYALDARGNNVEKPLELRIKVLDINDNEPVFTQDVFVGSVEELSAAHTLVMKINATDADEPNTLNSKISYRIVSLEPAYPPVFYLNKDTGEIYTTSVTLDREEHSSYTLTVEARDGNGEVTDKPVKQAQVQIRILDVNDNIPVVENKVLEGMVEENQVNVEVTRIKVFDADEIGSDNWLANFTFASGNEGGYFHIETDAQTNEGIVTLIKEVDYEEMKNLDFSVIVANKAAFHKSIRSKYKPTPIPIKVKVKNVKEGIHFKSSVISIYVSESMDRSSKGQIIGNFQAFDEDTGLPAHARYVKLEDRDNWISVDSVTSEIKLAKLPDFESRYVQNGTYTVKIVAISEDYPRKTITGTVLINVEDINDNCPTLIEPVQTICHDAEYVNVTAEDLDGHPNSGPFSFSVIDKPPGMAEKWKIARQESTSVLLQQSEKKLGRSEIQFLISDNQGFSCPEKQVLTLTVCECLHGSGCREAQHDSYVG

HAdV-D26 fiber-knob protein (domain or fragment)
stoichiometry N [1]: 3 | fold weaker affinity (KD) than HAdV-B35K [2]: > 1500 fold

HAdV-B3 fiber-knob protein (from UniProt P04501 1-319) (domain or fragment)
Kd [3]: 66.9 µM

HAdV-D48 fiber-knob protein (domain or fragment)
stoichiometry N [4]: 3 | fold higher affinity than HAdV-D26K [5]: 2 fold

B1: HAdV-D26 fiber-knob protein (domain or fragment)
chain: RRTLWTTPDTSPNCKMSTEKDSKLTLTLTKCGSQVLGNVSLLAVTGEYHQMTATTKKDVKISLLFDENGILLPSSSLSKDYWNYRSDDSIVSQKYNNAVPFMPNLTAYPKPSAQNAKNYSRTKIISNVYLGALTYQPVIITIAFNQETENGCAYSITFTFTWQKDYSAQQFDVTSFTFSYLTQE
Kd [6]: 21 µM

B2: HAdV-D48 fiber-knob protein (domain or fragment)
chain: DKLTLWTTPDPSPNCKIDQDKDSKLTFVLTKCGSQILANMSLLVVKGKFSMINNKVNGTDDYKKFTIKLLFDEKGVLLKDSSLDKEYWNYRSNNNNVGSAYEEAVGFMPSTTAYPKPPTPPTNPTTPLEKSQAKNKYVSNVYLGGQAGNPVATTVSFNKETGCTYSITFDFAWNKTYENVQFDSSFLTFSYIAQE
Kd [6]: 9.3 µM | koff [7]: 0.0024 s⁻¹

B3: HAdV-B35 fiber-knob protein (domain or fragment)
chain: TLWTGINPPPNCQIVENTNTNDGKLTLVLVKNGGLVNGYVSLVGVSDTVNQMFTQKTANIQLRLYFDSSGNLLTEESDLKIPLKNKSSTATSETVASSKAFMPSTTAYPFNTTTRDSENYIHGICYYMTSYDRSLFPLNISIMLNSRMISSNVAYAIQFEWNLNASESPESNIATLTTSPFFFSYITEDDN
Kd [8]: 0.027 µM | koff [9]: 0.032 s⁻¹

B4: HAdV-C5 fiber-knob protein (domain or fragment)
chain: KNNDKLTLWTTPAPSPNCRLNAEKDAKLTLVLTKCGSQILATVSVLAVKGSLAPISGTVQSAHLIIRFDENGVLLNNSFLDPEYWNFRNGDLTEGTAYTNAVGFMPNLSAYPKSHGKTAKSNIVSQVYLNGDKTKPVTLTITLNGTQETGDTTPSAYSMSFSWDWSGHNYINEIFATSSYTFSYIAQE
notes: fiber-knob domain of the fiber protein (pIV) of human adenovirus species C serotype 5; Vector pQE-30 probably adds an N-terminal His6 tag (surmised); also called HAdV-C5K; HAdV-C5 fiber-knob domain
Kd [10]: 0.00076 µM | koff [7]: 0.0016 s⁻¹
